Experimental data published in article PMC3229523, “Identification of Lactoferricin B Intracellular Targets Using an Escherichia coli Proteome Chip” (PLoS ONE, 2011).
Ends that are not written are not given here. * marks the point of attachment. Biotin = O=C1N[C@H]2[C@H](CS[C@H]2CCCCC(=O)*)N1

Columns and labels:
Test in all cases: peptide or protein array; E. coli proteome chip: purified His-tagged proteins printed in duplicate on Fullmoon slides, blocked with 1% BSA; 10 nM N-terminal biotinylated LfcinB with 1% BSA, room temperature, 1 h; detected with DyLight 649-labeled streptavidin, ratio to DyLight 549-labeled anti-His antibody; ProCAT normalisation, local cut-off; triplicate chips
Details in all cases: both partners purified
[1] = target: T1, YehS (E. coli K-12, UniProt P33355 1-156)
T1 construct: YehS, E. coli K-12
T1 sequence (looked up): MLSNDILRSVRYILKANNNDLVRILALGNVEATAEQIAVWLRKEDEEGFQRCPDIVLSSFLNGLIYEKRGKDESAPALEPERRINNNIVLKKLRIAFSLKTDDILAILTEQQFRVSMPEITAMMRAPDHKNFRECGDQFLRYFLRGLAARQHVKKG

[2] = target: T2, CbpA (E. coli K-12, UniProt P36659 1-306)
T2 construct: CbpA, E. coli K-12
T2 sequence (looked up): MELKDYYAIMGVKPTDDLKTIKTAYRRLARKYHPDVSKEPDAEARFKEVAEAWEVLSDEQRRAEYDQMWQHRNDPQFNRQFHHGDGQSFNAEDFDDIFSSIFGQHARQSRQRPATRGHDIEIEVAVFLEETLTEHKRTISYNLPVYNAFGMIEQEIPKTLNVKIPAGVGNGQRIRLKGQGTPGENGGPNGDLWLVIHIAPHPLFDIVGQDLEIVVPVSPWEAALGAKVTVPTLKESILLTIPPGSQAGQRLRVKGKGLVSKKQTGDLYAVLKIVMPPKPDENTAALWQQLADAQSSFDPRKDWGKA

[3] = target: T3, FlgC (E. coli K-12, UniProt P0ABX2 1-134)
T3 construct: FlgC, E. coli K-12
T3 sequence (looked up): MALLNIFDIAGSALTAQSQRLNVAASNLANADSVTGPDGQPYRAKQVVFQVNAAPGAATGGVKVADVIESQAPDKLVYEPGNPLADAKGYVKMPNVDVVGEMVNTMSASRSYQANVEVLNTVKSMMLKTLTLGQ

[4] = target: RplN (E. coli K-12, UniProt P0ADY3 1-123)
[5] = target: T4, YhjH (E. coli K-12, UniProt P37646 1-255)
T4 construct: YhjH, E. coli K-12
T4 sequence (looked up): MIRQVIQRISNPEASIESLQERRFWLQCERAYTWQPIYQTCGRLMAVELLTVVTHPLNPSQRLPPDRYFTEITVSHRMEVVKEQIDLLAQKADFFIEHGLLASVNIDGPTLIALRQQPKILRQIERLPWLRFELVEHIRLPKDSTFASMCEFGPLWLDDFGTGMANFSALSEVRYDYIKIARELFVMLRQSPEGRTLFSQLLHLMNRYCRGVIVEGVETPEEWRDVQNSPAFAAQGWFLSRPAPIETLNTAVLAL

[6] = target: T5, YhjC (E. coli K-12, UniProt P37641 1-299)
T5 construct: YhjC, E. coli K-12
T5 sequence (looked up): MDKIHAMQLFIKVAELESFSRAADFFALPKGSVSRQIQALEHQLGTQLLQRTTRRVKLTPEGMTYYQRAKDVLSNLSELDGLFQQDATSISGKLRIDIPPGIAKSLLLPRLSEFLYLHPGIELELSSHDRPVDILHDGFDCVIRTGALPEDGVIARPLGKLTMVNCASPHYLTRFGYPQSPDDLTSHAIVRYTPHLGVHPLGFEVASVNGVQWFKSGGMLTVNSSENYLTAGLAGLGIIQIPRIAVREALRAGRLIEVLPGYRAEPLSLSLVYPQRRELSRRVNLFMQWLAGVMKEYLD

[7] = target: T6, GloA (E. coli K-12, UniProt P0AC81 1-135)
T6 construct: GloA, E. coli K-12
T6 sequence (looked up): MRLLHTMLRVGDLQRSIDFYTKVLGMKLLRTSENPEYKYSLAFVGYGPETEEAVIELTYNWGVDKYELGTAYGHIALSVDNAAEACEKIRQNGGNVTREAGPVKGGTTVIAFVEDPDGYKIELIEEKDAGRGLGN

Measured: binding result

B1: N-terminal biotinylated Lactoferricin B (peptide, UniProt P24627 36-60, looked up)
peptide: Biotin-FKCRRWQWRMKKLGAPSITCVRRAF
modifications: ends and bridges not checked
notes: lactoferricin B (LfcinB), cationic antimicrobial peptide of 25 amino acids; also called biotinylated LfcinB; biotin-labeled LfcinB; source: bought: Kelowna Inc
binds: all assays above
